This note sets out measurements from the supplement of paper PMC10567573.

A short description of the data set: protein stability index of a GFP-peptide fusion (GPS, HEK-293T) (PSI 1-6); higher = more stable. To be noted: c terminus: a fixed tail appended.

± gives the standard deviation.
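Note: 24-mer peptide tiles fused after GFP, lentivirally expressed, FACS-sorted into six equal bins by GFP/DsRed ratio, decoded by Illumina sequencing, PSI is the read-weighted mean bin number.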

In the case of YAIKRSKKPLAGSVDEQNALREVY [WEE1], the protein stability index by setting is: (treatment: DMSO) 3.3 ± 0.32; (treatment: MLN4924 1 uM, 8 h) 3.16 ± 0.25.

For the sequence YAPEAPYTSPDKLKDIFMFITRQL [PDS5B], the protein stability index is, setting by setting: (treatment: DMSO) 2.59 ± 0.28; (treatment: MLN4924 1 uM, 8 h) 1.97 ± 0.34.

On to YCVPRGNRRRFRVRQPILQYRWDM [BEX1], for which the protein stability index reads like this: (treatment: DMSO) 2.46 ± 0.21; (treatment: MLN4924 1 uM, 8 h) 2.55 ± 0.17.

In turn, YDYVREFKRSTGTWHHTKPLLPSD [GAN] showed a protein stability index (treatment: DMSO) of 3.2 ± 0.32 and a protein stability index (treatment: MLN4924 1 uM, 8 h) of 3.27 ± 0.21.

For YESGYAFLPDLLIFQMVIICLMCV [SMG5], the protein stability index by setting is: (treatment: DMSO) 3.23 ± 0.32; (treatment: MLN4924 1 uM, 8 h) 3.16 ± 0.57.

With YGHPAGIDYKTTTILLDGRRVKLQ [RAB40B], the protein stability index by setting is: (treatment: DMSO) 2.87 ± 0.28; (treatment: MLN4924 1 uM, 8 h) 3.14 ± 0.11.

Turning to YKREILERVDGRRLVYKFGKNSSG [ELF3], the protein stability index amounted to 3.1 ± 0.22 (treatment: DMSO) and 3.21 ± 0.44 (treatment: MLN4924 1 uM, 8 h).

In the case of YKYCDHENAAFKDVALVLTVLLEE [TOR1AIP2], the protein stability index reads like this: (treatment: DMSO) 2.5 ± 0.43; (treatment: MLN4924 1 uM, 8 h) 2.8 ± 0.52.

Take YLKSCRRMKKNGMEMTRPTPPHLT [NOL4L]: the protein stability index reads like this: (treatment: DMSO) 2.89 ± 0.19; (treatment: MLN4924 1 uM, 8 h) 2.96 ± 0.25.

Take YLTGTINGDPESVASLHWDGGALL [ADAMTS4]: the protein stability index stood at 2.88 ± 0.59 (treatment: DMSO) and 3.1 ± 0.32 (treatment: MLN4924 1 uM, 8 h).

As for YNALKLFMEMNQKLFDDCTQQFKA [PPP2R5C], the protein stability index runs as follows: (treatment: DMSO) 2.46 ± 0.22; (treatment: MLN4924 1 uM, 8 h) 2.2 ± 0.24.

Consider YQELLRVCCCELGVNPDQVEKIRK [ANKRD40], for which the protein stability index by setting is: (treatment: DMSO) 2.41 ± 0.51; (treatment: MLN4924 1 uM, 8 h) 2.55 ± 0.22.

For YQLFEELGKGAFSVVRRCVKVLAG [CAMK2A], the protein stability index was determined as 2.9 ± 0.64 (treatment: DMSO) and 2.64 ± 0.39 (treatment: MLN4924 1 uM, 8 h).

In turn, YRDLAGGTGRSAKEQVLRKGTENL [FCHSD1] had a protein stability index (treatment: DMSO) of 4.16 ± 0.18 and a protein stability index (treatment: MLN4924 1 uM, 8 h) of 4.2 ± 0.33.

Regarding YRHQRLHTGERPYECTVCKKRFTR [ZNF449], the protein stability index worked out at 2.75 ± 0.56 (treatment: DMSO) and 3.5 ± 0.53 (treatment: MLN4924 1 uM, 8 h).

Regarding YRIRQVNIYYYLEDDSMSVIEPVV [EFHC1], the protein stability index (treatment: DMSO) amounted to 2.87 ± 0.31 and the protein stability index (treatment: MLN4924 1 uM, 8 h) stood at 2.55 ± 0.55.

For the sequence YRKKSAEFPDFYDSEEPVSTHQEA [CHGB], the protein stability index stood at 4.97 ± 0.12 (treatment: DMSO) and 5.01 ± 0.32 (treatment: MLN4924 1 uM, 8 h).

With YSAAALQEAMKRLRGAKAFRLPGL [FCHO1], the protein stability index runs as follows: (treatment: DMSO) 2.3 ± 0.076; (treatment: MLN4924 1 uM, 8 h) 2.42 ± 0.2.

Consider YSECIVTVGGEERVSRKPTAAMRC [GAN], for which the protein stability index turned out to be 3.56 ± 0.32 (treatment: DMSO) and 3.85 ± 0.66 (treatment: MLN4924 1 uM, 8 h).

In turn, YSIQERRPQLPQVLQHVRLPLLSP [KLHL20] came in with a protein stability index (treatment: DMSO) of 3.4 ± 0.18 and a protein stability index (treatment: MLN4924 1 uM, 8 h) of 3.42 ± 0.32.

YTATEQEMQQQMSLGELCHPVPLS [TRIM14]: the protein stability index is, setting by setting: (treatment: DMSO) 4.26 ± 0.23; (treatment: MLN4924 1 uM, 8 h) 4.14 ± 0.27.

For the sequence YTGMFTSSPDLDDMKLIILANRLC [RHOBTB2], the protein stability index came out at 2.73 ± 0.51 (treatment: DMSO) and 2.7 ± 0.51 (treatment: MLN4924 1 uM, 8 h).

As to YTVRAPVGVAGLISPWNLPLYLLT [ALDH8A1], the protein stability index by setting is: (treatment: DMSO) 2.49 ± 0.47; (treatment: MLN4924 1 uM, 8 h) 2.14 ± 0.07.

In the case of YVFFVLAVMEHAESKMYATSPYSD [PTPRD], the protein stability index is, setting by setting: (treatment: DMSO) 3.02 ± 0.82; (treatment: MLN4924 1 uM, 8 h) 3.28 ± 0.78.

Turning to YVQEKRDGLKRRQQLEEELLRAKI [RAD54B], the protein stability index came out at 2.71 ± 0.66 (treatment: DMSO) and 3.38 ± 0.78 (treatment: MLN4924 1 uM, 8 h).

For the sequence YWTKYYDFKNPIIEKYLRRQLTKP [OAS1], the protein stability index reads like this: (treatment: DMSO) 1.94 ± 0.33; (treatment: MLN4924 1 uM, 8 h) 2.11 ± 0.19.

On to YYLALLLSLLVMVISPVIQLQPTF [NSDHL], for which the protein stability index came out at 2.68 ± 0.37 (treatment: DMSO) and 2.91 ± 0.64 (treatment: MLN4924 1 uM, 8 h).

YYVLEPRVVDGTPCSPDSSSVCVQ [ADAMTS4]: the protein stability index is, setting by setting: (treatment: DMSO) 3.33 ± 0.35; (treatment: MLN4924 1 uM, 8 h) 3.21 ± 0.28.
